Measured values as given in US20060121580A1.

Legend:
[1] = biological target: SARS-CoV preparation (Frankfurt 1 strain); experiment: phage ELISA on coated SARS-CoV preparation, plate 2 (no phage antibody 0.211)
[2] = biological target: SARS-CoV strain Frankfurt 1 (infectious virus); experiment: cell-based or functional assay
[3] = biological target: SARS-CoV strain Frankfurt 2 (infectious virus); experiment: cell-based or functional assay
[4] = biological target: fetal bovine serum (FBS), 10% preparation; experiment: phage ELISA on coated 10% FBS

B1: SC03-026 (scFv)
scFv: AMAQVQLVQSGGGLVQPGGSLRLSCAASGFTFSSYAMHWVRQAPGKGLEYVSGISSNGGSTYYANSVKGRFTISRDNSKNTLYLQMGSLRAEDMAVYYCARTTNRAFDIWGQGTMVTVSSGTGGSGGTGSGTGGSTDIQMTQSPDSLAVSLGERATINCKSSQSILYSSNSKNYLGWYQQKPGQPPKLLIYWASTRESGVPDRFSGSGSGTDFTLTISSLQAEDVAVYYCQQYYSTPYSFGQGTKVEIKRAA
[1]
  OD492 nm: 1.07 OD492 nm

B2: bivalent scFv pyBi03-012C02 (scFv)
scFv: AMAQVQLVQSGAEVKKPGASVKVSCKASGYTFTSYGISWVRQAPGQGLEWMGWISAYNGNTNYAQKLQGRVTMTTDTSTSTAYMELSSLRSDDTAVYYCARMFRKSSFDSWGQGTLVTVSRGGGGSGGGGSGGGGSSELTQDPAVSVALGQTVRITCQGDSLRSYYASWYQQKPGQAPVLVIYGKNNRPSGIPDRFSGSSSGNTASLTITGAQAEDEADYYCNSRDSSGNHVVFGGGTKLTVLGAAA
[2]
  Neutralization titer for Frankfurt 1 strain (dilution factor): < 20
[3]
  Neutralization titer for Frankfurt 2 strain (dilution factor): < 20

B3: single-chain phage antibody SC03-012 (scFv)
scFv: AMAQVQLVQSGAEVKKPGASVKVSCKASGYTFTSYGISWVRQAPGQGLEWMGWISAYNGNTNYAQKLQGRVTMTTDTSTSTAYMELSSLRSDDTAVYYCARMFRKSSFDSWGQGTLVTVSRGGGGSGGGGSGGGGSSELTQDPAVSVALGQTVRITCQGDSLRSYYASWYQQKPGQAPVLVIYGKNNRPSGIPDRFSGSSSGNTASLTITGAQAEDEADYYCNSRDSSGNHVVFGGGTKLTVLGAAA
[4]
  OD492 nm: 0.1 OD492 nm

B4: bivalent scFv pyBi03-015C02 (scFv)
scFv: AMAEVQLVESGGGVVRPGGSLRLSCAASGFTFDDYGMSWVRQAPGKGLEWVSGINWNGGSTGYADSVKGRFTISRDNAKNSLYLQMNSLRAEDTAVYYCARGLSLRPWGQGTLVTVSRGGGGSGGGGSGGGGSSELTQDPAVSVALGQTVRITCQGDSLRSYYASWYQQKPGQAPVLVIYGKNNRPSGIPDRFSGSSSGNTASLTITGAQAEDEADYYCNSRDSSGNHVVFGGGTKLTVLGAAA
[2]
  Neutralization titer for Frankfurt 1 strain (dilution factor): < 20
[3]
  Neutralization titer for Frankfurt 2 strain (dilution factor): < 20

B5: single-chain phage antibody SC03-015 (scFv)
scFv: AMAEVQLVESGGGVVRPGGSLRLSCAASGFTFDDYGMSWVRQAPGKGLEWVSGINWNGGSTGYADSVKGRFTISRDNAKNSLYLQMNSLRAEDTAVYYCARGLSLRPWGQGTLVTVSRGGGGSGGGGSGGGGSSELTQDPAVSVALGQTVRITCQGDSLRSYYASWYQQKPGQAPVLVIYGKNNRPSGIPDRFSGSSSGNTASLTITGAQAEDEADYYCNSRDSSGNHVVFGGGTKLTVLGAAA
[4]
  OD492 nm: 0.077 OD492 nm

B6: bivalent scFv pyBi03-006C02 (scFv)
scFv: SMAEVQLVESGGGLVQPGGSLRLSCAASGFTFSGYPMHWVRQAPGKGLEWVAVISYDGSNKYYADSVKGRFTISRDNSKNTLYLQMNSLRAEDTAVYYCAKDGSPRTPSFDYWGQGTLVTVLEGTGGSGGTGSGTGTSELDIQMTQSPHSLSASVGDRVTITCRASQGISNYLAWYQQKPGKVPKLLIYAASTLQSGVPSRFSGSGSGTDFTLTISSLQPEDVGVYYCQQRFRTPVTFGQGTKLEIKRAAA
[2]
  Neutralization titer for Frankfurt 1 strain (dilution factor): < 20
[3]
  Neutralization titer for Frankfurt 2 strain (dilution factor): < 20

B7: single-chain phage antibody SC03-006 (scFv)
scFv: SMAEVQLVESGGGLVQPGGSLRLSCAASGFTFSGYPMHWVRQAPGKGLEWVAVISYDGSNKYYADSVKGRFTISRDNSKNTLYLQMNSLRAEDTAVYYCAKDGSPRTPSFDYWGQGTLVTVLEGTGGSGGTGSGTGTSELDIQMTQSPHSLSASVGDRVTITCRASQGISNYLAWYQQKPGKVPKLLIYAASTLQSGVPSRFSGSGSGTDFTLTISSLQPEDVGVYYCQQRFRTPVTFGQGTKLEIKRAAA
[4]
  OD492 nm: 0.086 OD492 nm
